# B1: modified human antibody 028-8-12: human antibody 028-8-12 with amino acid modifications in CDR and VL regions; VH SEQ ID NO: 63, VL SEQ ID NO: 67 (antibody, V domains shown)
# VH: EVQLLESGGGLVQPGGSLRLSCAASGFTFSELSMSWVRQAPGKGLEWVSAISGSGGSTYYASSVKGRFTISRDNSKNTLYLQMNSLRAEDTAVYYCAREGGRLEPYYYYYAMDVWGQGTPVTVSS
# VL: DIQMTQSPSSLSASVGDRVTITCRASQSISDNLHWYQQKPGKAPKLLIYDASNLESGVPSRFSGSGSGTDFTLTISSLQPEDFATYYCQQYYSTPLTFGQGTKLEIK
# B2: Hu4A-2F7: humanized antibody VH1/VL1; VH SEQ ID NO: 72, VL SEQ ID NO: 74 (antibody, V domains shown)
# VH: QVTLKESGPALVKPTQTLTLTCTFSGFSLSTSGMGVDWIRQPPGKALEWLAHIWWDDDKYYNPSLKSQLTISKDTSKNQVVLTMTNMDPVDTATYYCARSYGYDMDYYAMDYWGQGTTVTVSS
# VL: DIQMTQSPSSLSASVGDRVTITCRASQEISGYLSWLQQKPGKAPKRLIYAASTLSSGVPSRFSGSGSGTDFTLTISSLQPEDFATYYCLQYASYPPWTFGGGTKVEIK
# B3: Hu1A-7H10: humanized antibody VH1/VL1; VH SEQ ID NO: 68, VL SEQ ID NO: 70 (antibody, V domains shown)
# VH: QVTLKESGPVLVKPTETLTLTCTVSGFSSTTYGVHWVRQPPGKALEWLGVIWAGGSTNYNAALMSRLTISKDTSKSQVVLTMTNMDPVDTATYYCATQYHYPFAYWGQGTLVTVSS
# VL: DIQMTQSPSSLSASVGDRVTITCKASENVGIYVSWYQQKPGKAPKLMIYGASNRNTGVPSRFSGSGSGTDFTLTISSLQPEDFATYYCGQSYSYPLTFGGGTKVEIK
# System: CXCR2-expressing cells
# Experiment: In vivo migration inhibitory activity test on CXCR2-expressing cells, OCUM-12 orthotopic transplantation (prevention model)
# Set-up: species or system mouse
# Conditions: 400 μg/head intraperitoneally twice a week, 3 weeks; compared to hIgG1 antibody
# Description: (§1) The stomachs after measurement of the tumor size in [3-1] above were excised and fixed overnight at room temperature with a 10% neutral buffered formalin solution (Wako Pure Chemical Industries, Ltd., Japan), followed by replacement with PBS. Then, paraffin embedding and section preparation were outsourced to Applied Medical Research Laboratory, Japan. The prepared gastric tumor sections were immunohistologically stained with an anti-CXCR2 antibody to evaluate in vivo CXCR2 cell migration inhibitory activity. The sections were deparaffinized and rehydrated, and then treated to inactivate endogenous peroxidase. After antigen activation treatment, the sections were blocked with PBS containing 2% skimmed milk and 0.1% Tween-20, and reacted overnight at 4° C. with an anti-CXCR2 antibody (Biorbyt) as a primary antibody, which had been diluted to 0.3 μg/mL with the blocking solution. After washing with PBS containing 0.1% Tween-20, the sections were reacted at room temperature for 1 hour with an HRP-labeled goat anti-rabbit IgG antibody (Abcam) as a secondary antibody. After washing with a washing solution, a simple stain DAB solution (5052, Nichirei Corporation, Japan) was used to cause color development. After images of the stained tissues were captured with an Explore (Olympus Corporation, Japan), imaging software CellSens (Olympus Corporation, Japan) was used to calculate CXCR2-positive cells per unit area.
# (§2) Navarixin is among small molecular compounds that act on CXCR2 and inhibit CXCL1-CXCR2 signaling. […] Then, using a model with OCUM-12 orthotopic transplantation, the migration inhibition of CXCR2-expressing cells and antitumor activity were evaluated in vivo for Navarixin. As a vehicle, ultrapure water containing 20% 2-hydroxypropyl-β-cyclodextrin (FUJIFILM Wako Pure Chemical Corporation, Japan) was used. Navarixin (MedChemExpress) was dissolved in ultrapure water containing 20% 2-hydroxypropyl-β-cyclodextrin, and orally administered at a dose of 100 mg/kg/day in a schedule of once a day for 5 consecutive days, followed by a 2-day withdrawal.
# as §1, with “after measurement were excised” for “after measurement of the tumor size in [3-1] above were excised”, “and 0.1% Tween-20 (hereinafter referred to as the blocking solution), and reacted” for “and 0.1% Tween-20, and reacted”, “been diluted 1667-fold with the” for “been diluted to 0.3 μg/mL with the”, “to calculate positive cells per” for “to calculate CXCR2-positive cells per”
# The dose-response relationship between antibody dose and in vivo antitumor activity or CXCR2 migration inhibitory activity was evaluated in a xenograft prevention model with OCUM-12 orthotopic transplantation. A prevention model is a model designed to start antibody administration from the day following tumor transplantation. […]
row,Molecule,Migration of CXCR2-expressing cells (positive cells per unit area)
1,B1,significantly suppress the migration of CXCR2-expressing cells
2,B2,significantly suppress the migration of CXCR2-expressing cells
3,B3,significantly suppress the migration of CXCR2-expressing cells

# System: OCUM-12 gastric cancer cell line
# Experiment: Antitumor activity test, model with OCUM-12 orthotopic transplantation (prevention model)
# Type: in vivo, mouse
# Conditions: 400 μg/head intraperitoneally twice a week, 3 weeks; compared to hIgG1 antibody
# Method: A model with OCUM-12 orthotopic transplantation was prepared to evaluate the above 4 types of candidate antibodies for their in vivo CXCR2 migration inhibitory activity and antitumor activity in a xenograft model with OCUM-12 orthotopic transplantation.
# For use as mice, female nude mice (BALB/cAJcl-nu/nu) at 5 to 6 weeks of age were purchased from CLEA Japan, Inc., Japan. For use as human cancer cells, a gastric cancer cell line, OCUM-12, was provided by University Public Corporation Osaka, Japan.
# OCUM-12 cells were cultured in D-MED medium (FUJIFILM Wako Pure Chemical Corporation, Japan) supplemented with 10% fetal bovine serum (FBS; Sigma-Aldrich Corporation) and 1/100 volumes of a penicillin-streptomycin mixture (Nacalai Tesque, Inc., Japan). The cells to be transplanted were detached with 0.25% trypsin/0.02% EDTA (Thermo Fisher Scientific) and washed with PBS, and 4× 10^5 cells per mouse were transplanted into the gastric wall of each mouse.
# On the day following the above transplantation, the mice were randomized into groups (8 or 6 mice per group) and intraperitoneally administered with PBS as a control and with 4 types of candidate antibodies (1A-7H10, 4A-2F7, 5A-5E11 and 028-8-12) and 3 types of non-candidate antibodies (1A-3C6, 1A-2H3 and 4A-5B11) at a dose of 20 mg/kg. In addition, mouse IgG1 as a control was intraperitoneally administered at a dose of 20 mg/kg, and 3 types of antibodies (5A-5E11, 1A-4H10 and 4A-7G7) among the candidate antibodies were intraperitoneally administered at a dose of 20 mg/kg. The administration of these antibodies was then continued with a frequency of twice a week until the completion of the test. After 3 weeks had passed from the transplantation, the mice were sacrificed, and the short- and long-axis diameters of tumors formed in their gastric walls were each measured with a caliper. The tumor size was calculated according to the following: 1/2 short-axis diameter (mm)×1/2 long-axis diameter (mm)×3.14.
# as §2
# The humanized antibodies were evaluated for their in vivo antitumor activity and CXCR2 migration inhibitory activity in a xenograft model with OCUM-12 orthotopic transplantation. Procedures for the evaluation are shown below.
# For use as mice, female nude mice (BALB/cAJcl-nu/nu) at 5 to 6 weeks of age were purchased from CLEA Japan, Inc., Japan. For use as human cancer cells, gastric cancer cell line, OCUM-12, was provided by Osaka Metropolitan University, Japan.
# OCUM-12 cells were cultured in D-MED medium (FUJIFILM Wako Pure Chemical Corporation, Japan) supplemented with 10% fetal bovine serum (hereinafter abbreviated as FBS; Sigma-Aldrich Corporation) and 1/100 volumes of a penicillin-streptomycin mixture (Nacalai Tesque, Inc., Japan). The cells to be transplanted were detached with 0.25% trypsin/0.02% EDTA (Thermo Fisher Scientific) and washed with PBS, and 4×10^5 cells per mouse were transplanted into the gastric wall of each mouse. On the day following the transplantation, the mice were randomized into groups (8 mice per group) and intraperitoneally administered with test antibodies at a dose of 400 μg/head. PBS was intraperitoneally administered in a volume of 200 μL with a frequency of twice a week for 3 weeks, starting from the day following the transplantation. […]
row,Molecule,Antitumor activity (tumor area)
1,B1,significantly suppress an increase in the tumor area
2,B2,significantly suppress an increase in the tumor area
3,B3,significantly suppress an increase in the tumor area

# Reference: patent publication US20250154240A1, “ANTI-HUMAN CXCL1 ANTIBODY” (CHIOME BIOSCIENCE INC., priority 2022, published 2025)
